Target: BphP1-iB(GFP) (Rhodopseudomonas palustris | not stated)
Assay: light-induced relocalisation in live cells (epifluorescence microscopy); HeLa co-expressing BphP1-iB(GFP), mVenus-CAAX and mCherry-QPAS1; darkness against 740 nm light (1 mW cm^-2), 37 °C; mCherry signal moves from cytoplasm to plasma membrane

With mCherry-QPAS1 the half-time of the relocalisation from cytoplasm to plasma membrane was 33.6 s.

Reference: publication PMC6992714
